Test results reported in patent US6627405 (CURAGEN, dated 2003).

B1: 53BP2 bait fragment, amino acids 704-1005 (C-terminus) of human 53BP2 (other)
chain: SPGLDYEPEGVPDNSPNLQNNPEEPNPEAPHVLDVYLEEYPPYPPPPYPSGEPEGPGEDSVSMRPPEITGQVSLPPGKRTNLRKTGSERIAHGMRVKFNPLALLLDSSLEGEFDLVQRIIYEVDDPSLPNDEGITALHNAVCAGHTEIVKFLVQFGVNVNAADSDGWTPLHCAASCNNVQVCKFLVESGAAVFAMTYSDMQTAADKCEEMEEGYTQCSQFLYGVQEKMGIMNKGVIYALWDYEPQNDDELPMKEGDCMTIIHREDEDEIEWWWARLNDKEGYVPRNLLGLYPRIKPRQRSLA
notes: also called BBP; not shown: residues not
B2: p62 prey sequence, amino acids 275-443 (other, yeast)
chain: NGVPEPSRGRGVPVRGRGAAPPPPPVPRGRGVGPPRGALVRGTPVRGAITRGATVTRGVPPPPTVRGAPAPRARTAGIQRIPLPPPPAPETYEEYGYDDTYAEQSYEGYEGYYSQSQGDSEYYDYGHGEVQDSYEAYGQDDWNGTRPSLKAPPARPVKGAYREHPYGRY

Tests used:
Assay in all cases: yeast two hybrid mating, growth on selective medium
[1] = biological target: T1, Ral GDS (GenBank Acc. No. U14417) (UniProt Q12967 1-914, limits assumed)
T1 construct: Expressed as a Gal4 hybrid in yeast
T1 sequence (looked up): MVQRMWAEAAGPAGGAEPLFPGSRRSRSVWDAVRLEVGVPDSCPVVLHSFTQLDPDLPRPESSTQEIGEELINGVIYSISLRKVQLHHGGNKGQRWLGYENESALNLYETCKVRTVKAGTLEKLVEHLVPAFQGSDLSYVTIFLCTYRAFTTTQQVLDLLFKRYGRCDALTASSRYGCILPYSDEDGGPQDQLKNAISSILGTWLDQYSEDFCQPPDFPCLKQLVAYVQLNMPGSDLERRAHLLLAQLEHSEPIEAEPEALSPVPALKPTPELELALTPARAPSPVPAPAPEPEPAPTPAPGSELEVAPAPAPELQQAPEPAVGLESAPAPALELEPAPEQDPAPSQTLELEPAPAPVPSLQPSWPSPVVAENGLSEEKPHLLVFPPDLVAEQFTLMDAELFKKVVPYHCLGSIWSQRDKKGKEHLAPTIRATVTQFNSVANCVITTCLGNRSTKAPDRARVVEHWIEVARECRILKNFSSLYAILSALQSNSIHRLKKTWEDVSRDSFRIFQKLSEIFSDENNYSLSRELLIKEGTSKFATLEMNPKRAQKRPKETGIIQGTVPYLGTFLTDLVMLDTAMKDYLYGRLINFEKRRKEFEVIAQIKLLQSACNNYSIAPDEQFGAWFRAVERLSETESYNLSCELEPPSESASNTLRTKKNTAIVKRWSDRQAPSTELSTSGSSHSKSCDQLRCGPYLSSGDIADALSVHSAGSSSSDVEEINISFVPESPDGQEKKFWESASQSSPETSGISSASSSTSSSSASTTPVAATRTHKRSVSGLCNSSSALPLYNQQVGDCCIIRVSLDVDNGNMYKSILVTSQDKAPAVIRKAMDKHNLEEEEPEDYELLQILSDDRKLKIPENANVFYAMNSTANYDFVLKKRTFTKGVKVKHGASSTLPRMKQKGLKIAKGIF
Experimental: (§1) The two mating strains, alpha and a, were then, diluted in YAPD media (Sherman et al., eds., 1991, *Getting Started with Yeast*, Vol. 194, Academic Press, New York), filtered onto nitrocellulose membranes, and incubated at 30 degrees Celsius for 6–8 hours. The cells were then transferred to media selective for the desired diploids, i.e., yeast harboring reporter genes for beta-galactosidase, uracil auxotrophy, and histidine auxotrophy, and expression of the vectors encoding the bait and prey. The mating products were plated on SC (synthetic complete) (Kaiser et al. eds., 1994, *Methods in Genetics*, 1994 ed., Cold Spring Harbor Press, New York, p. 209) media lacking adenine and lysine (to select for successful mating), leucine and tryptophan (to select for expression of genes encoded by both the bait and prey plasmids), and uracil and histidine (to select for protein interactions). This medium is herein referred to as SCS medium, for SC Selective medium.
(§2) No. X03541, Martin-Zanca, et al., 1986, Nature 319: 743–748), EST M62042 (Adams et al., 1991, Science 252: 1651–1656), Ral GDS (GenBank Acc. No. U14417, Hofer, et al., 1994, Proc. Natl. Acad. Sci. U.S.A. 91: 11089–11093) or E2F (GenBank Acc. […] No. M92424, Oliner et al., 1994, direct submission), CAS (GenBank Acc. No. U33286, Brinkmann et al., 1995, Proc. Natl. Acad. Sci. U.S.A. 92: 10427–10431), and PA9 (GenBank Acc. No. S82076, Yang et al., 1996, Carcinogenesis 17:563–567) Specifically, lack of growth for p62 and β-tubulin interactions with MDM2 is depicted in FIG. 7.

[2] = biological target: T2, pRb (GenBank Acc. No. M28419) (UniProt P06400 1-928, limits assumed)
T2 construct: Expressed as a Gal4 hybrid in yeast
T2 sequence (looked up): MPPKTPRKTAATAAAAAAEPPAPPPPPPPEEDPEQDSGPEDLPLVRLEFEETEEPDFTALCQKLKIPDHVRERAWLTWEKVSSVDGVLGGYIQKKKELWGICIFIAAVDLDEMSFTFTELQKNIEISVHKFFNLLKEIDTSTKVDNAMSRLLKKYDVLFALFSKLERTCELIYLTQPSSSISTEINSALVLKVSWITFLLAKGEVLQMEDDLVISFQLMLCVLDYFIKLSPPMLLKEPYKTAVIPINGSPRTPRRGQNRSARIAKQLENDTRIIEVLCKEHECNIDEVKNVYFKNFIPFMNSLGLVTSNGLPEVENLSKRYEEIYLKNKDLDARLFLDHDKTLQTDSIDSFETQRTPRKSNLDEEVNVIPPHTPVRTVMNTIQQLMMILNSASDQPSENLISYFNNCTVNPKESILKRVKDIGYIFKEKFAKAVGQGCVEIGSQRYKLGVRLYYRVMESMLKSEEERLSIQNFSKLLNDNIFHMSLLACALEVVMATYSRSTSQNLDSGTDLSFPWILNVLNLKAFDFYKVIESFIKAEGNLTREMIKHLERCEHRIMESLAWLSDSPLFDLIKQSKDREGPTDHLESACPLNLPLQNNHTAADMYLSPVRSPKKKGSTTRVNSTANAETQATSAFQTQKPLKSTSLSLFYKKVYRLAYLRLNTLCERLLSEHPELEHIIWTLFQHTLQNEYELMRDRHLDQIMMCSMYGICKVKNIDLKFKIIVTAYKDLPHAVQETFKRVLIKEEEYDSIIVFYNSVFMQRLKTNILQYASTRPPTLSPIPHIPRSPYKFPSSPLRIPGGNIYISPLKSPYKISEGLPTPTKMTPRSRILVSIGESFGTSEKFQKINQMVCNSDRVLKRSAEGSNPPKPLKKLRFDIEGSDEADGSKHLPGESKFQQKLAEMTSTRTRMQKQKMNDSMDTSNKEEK
Experimental: as §1, §2

[3] = biological target: T3, MDM2 (GenBank Acc. No. M92424) (UniProt Q00987 1-491, limits assumed)
T3 construct: Bait hybrid expressed in yeast strain N106r; also called MDM2 bait
Experimental: as §1, §2

[4] = biological target: T4, CAS (GenBank Acc. No. U33286) (UniProt P55060 1-971, limits assumed)
T4 construct: Bait hybrid expressed in yeast strain N106r
T4 sequence (looked up): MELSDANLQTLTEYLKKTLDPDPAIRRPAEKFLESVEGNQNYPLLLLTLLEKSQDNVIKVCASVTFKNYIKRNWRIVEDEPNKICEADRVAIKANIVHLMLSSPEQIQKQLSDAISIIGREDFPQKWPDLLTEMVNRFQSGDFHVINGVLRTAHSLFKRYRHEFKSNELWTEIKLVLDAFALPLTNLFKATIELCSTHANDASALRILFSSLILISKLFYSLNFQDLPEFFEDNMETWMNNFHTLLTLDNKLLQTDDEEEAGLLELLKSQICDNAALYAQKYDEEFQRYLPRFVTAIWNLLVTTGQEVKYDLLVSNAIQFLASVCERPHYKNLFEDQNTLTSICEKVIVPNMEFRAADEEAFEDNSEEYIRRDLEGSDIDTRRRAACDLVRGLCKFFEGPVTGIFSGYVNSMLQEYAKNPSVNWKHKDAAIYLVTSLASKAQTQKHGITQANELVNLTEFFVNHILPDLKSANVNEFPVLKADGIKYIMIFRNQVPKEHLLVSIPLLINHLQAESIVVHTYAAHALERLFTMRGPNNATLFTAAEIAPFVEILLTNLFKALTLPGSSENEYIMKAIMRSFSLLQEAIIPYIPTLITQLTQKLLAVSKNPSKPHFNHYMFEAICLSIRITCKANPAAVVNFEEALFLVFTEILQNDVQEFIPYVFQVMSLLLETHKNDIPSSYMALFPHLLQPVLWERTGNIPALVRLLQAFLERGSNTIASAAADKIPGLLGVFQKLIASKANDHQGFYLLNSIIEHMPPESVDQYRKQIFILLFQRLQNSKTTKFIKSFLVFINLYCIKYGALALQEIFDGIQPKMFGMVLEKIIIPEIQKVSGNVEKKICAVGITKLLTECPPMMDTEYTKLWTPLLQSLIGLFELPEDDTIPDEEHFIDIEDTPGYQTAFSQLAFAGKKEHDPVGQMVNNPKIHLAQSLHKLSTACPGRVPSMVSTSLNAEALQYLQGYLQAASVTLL
Experimental: as §1, §2

T3 sequence (Q00987 whole entry, one chain of several): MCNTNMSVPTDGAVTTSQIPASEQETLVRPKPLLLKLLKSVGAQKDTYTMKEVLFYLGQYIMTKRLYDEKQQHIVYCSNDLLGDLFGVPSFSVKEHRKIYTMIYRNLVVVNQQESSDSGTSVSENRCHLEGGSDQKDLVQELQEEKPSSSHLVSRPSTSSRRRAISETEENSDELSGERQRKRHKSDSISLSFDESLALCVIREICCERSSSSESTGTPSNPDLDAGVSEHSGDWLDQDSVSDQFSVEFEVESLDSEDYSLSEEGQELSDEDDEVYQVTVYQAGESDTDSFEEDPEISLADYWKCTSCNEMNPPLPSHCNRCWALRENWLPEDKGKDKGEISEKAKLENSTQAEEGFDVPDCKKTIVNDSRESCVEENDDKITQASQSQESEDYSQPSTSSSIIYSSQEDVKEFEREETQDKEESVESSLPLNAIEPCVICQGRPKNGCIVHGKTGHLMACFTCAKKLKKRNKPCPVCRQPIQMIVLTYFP

Binder	binding result [1]	binding result [2]	binding result [3]	binding result [4]
B1	no binding	no binding	–	–
B2	–	–	no binding	no binding
